Drawing on PMC5602300, this text covers Kd and apparent KD in the presence of 1 µM Ndc80 Bonsai complex for 2 substances.

Assay [1] addresses taxol-stabilized microtubules (pelleting assays) (UniProt P02550). Description: co-sedimentation; microtubule pelleting with increasing taxol-stabilized microtubules; ~5 nM Astrin-SKAP complex, BRB80 with 25 mM KCl, 0.5 mg/mL BSA, room temperature 10 min, glycerol cushion; α-SKAP Western blot; apparent. (In general: In western blotting, separated proteins are transferred to a membrane and probed.)

For assay [2] the target is unchanged. Description: co-sedimentation; as a5 with increasing microtubules, in the presence of an added Ndc80 complex (1 µM Ndc80 Bonsai; Ndc80 Broccoli); apparent.

As for “Astrin 1–693 complex (Astrin 1–693, SKAP, LC8, MYCBP) (from UniProt Q96R06 1-693; P63167 1-89; Q99417 1-103)”, the Kd in assay [1] amounted to 3200 nM. The apparent KD in the presence of 1 µM Ndc80 Bonsai complex in assay [2] came out at 1400 nM.
In the same order, the values of “Astrin 465–693 complex (Astrin 465–693, SKAP, LC8, MYCBP) (from UniProt Q96R06 465-693; P63167 1-89; Q99417 1-103)” are 2200 nM and 1700 nM.
